Measured values reported in patent US20020177231A1 (published 2002).

Biological target: T1, PYK2 (UniProt Q14289 1-1009, limits assumed)
T1 construct: Endogenous protein in cell lysate, detected with anti-PYK2 monoclonal antibody P47120 (Transduction Labs)
Assay: GST pull-down from JY8-8 lysate, anti-Pyk2 immunoblot
Method: In preparation of cell lysate including Pyk2, JY8-8 cell lysate was prepared by disrupting 4×10⁷ exponentially growing cells in one ml of Ipegal Lysis Buffer (described above) for 10 minutes on ice. Lysate was clarified by centrifugation at 10,000 rpm in a microfuge at 4° C. JY8-8 lysate (corresponding to approximately 1×10⁷ cells) was incubated for 90 minutes with 30 μl glutathione agarose on which approximately one μg of GST or GST-containing fusion protein was immobilized. The resin was washed three times with one ml Ipegal lysis buffer.
Pyk2 present in lysates of JY8-8 cells bound specifically to GST-LD protein but not to GST alone. Pyk2 binding was detected with wild-type GST-LD, and GST-LD proteins with mutations in the second or fourth LD motifs.

T1 sequence (Q14289 whole entry): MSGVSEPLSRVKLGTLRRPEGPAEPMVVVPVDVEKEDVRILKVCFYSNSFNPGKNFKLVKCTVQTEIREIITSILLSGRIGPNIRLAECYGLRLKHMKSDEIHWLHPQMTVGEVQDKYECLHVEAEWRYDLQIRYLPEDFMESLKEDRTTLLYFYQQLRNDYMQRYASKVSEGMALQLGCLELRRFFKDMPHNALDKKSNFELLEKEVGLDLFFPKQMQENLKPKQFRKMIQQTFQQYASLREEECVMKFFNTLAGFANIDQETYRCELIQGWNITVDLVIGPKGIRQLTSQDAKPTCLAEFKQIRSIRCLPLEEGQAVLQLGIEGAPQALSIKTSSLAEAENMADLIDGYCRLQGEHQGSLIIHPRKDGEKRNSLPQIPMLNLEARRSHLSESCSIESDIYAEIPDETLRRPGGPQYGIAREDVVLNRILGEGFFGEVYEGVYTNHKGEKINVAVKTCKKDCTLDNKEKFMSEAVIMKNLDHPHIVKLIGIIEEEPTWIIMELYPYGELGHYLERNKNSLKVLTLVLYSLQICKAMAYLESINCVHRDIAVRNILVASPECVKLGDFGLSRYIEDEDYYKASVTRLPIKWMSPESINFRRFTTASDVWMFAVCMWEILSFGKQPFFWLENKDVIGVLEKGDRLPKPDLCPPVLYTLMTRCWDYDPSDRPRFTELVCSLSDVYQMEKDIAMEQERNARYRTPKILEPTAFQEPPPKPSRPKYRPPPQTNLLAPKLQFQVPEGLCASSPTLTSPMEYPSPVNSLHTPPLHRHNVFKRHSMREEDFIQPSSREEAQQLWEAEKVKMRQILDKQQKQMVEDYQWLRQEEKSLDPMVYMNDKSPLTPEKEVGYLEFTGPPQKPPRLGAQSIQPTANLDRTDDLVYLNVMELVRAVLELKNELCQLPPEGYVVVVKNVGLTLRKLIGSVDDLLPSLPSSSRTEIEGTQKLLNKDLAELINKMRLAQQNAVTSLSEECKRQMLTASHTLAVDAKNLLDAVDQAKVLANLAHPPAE

binding result: no binding
B1: GST-LD with a mutation in the third LD motif (other)
chain: EELDALLEELERSTLQDSDEYSNPAPLPLDQHSRKETNLDETSEILSIQDNTSPLPAQLVYTTNIQELNVYSEAQEPKESPPPSKTSAAAQAAALMAHLTEMQAKVAVRADAGKKHLPDKQDHKASLDSMLGGLEQELQDLGIATVPK
notes: not shown: glutathione-S-transferase (GST) encoded by vector pGEX-4T-1 (Pharmacia)
